Measured values reported in the domain aggregation screens of Martell et al. (2025).

assay: soluble fraction after stress (log2 fold change); higher = more stays soluble; pooled small domains, quantitative proteomics; details: stress: pH 4
How it was run: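 After pH 4 stress, pooled custom libraries of small protein domains were quantified with high-throughput quantitative proteomics. Aggregation propensity is taken from the fold change in each domain's soluble amount following the acid stress. The scale is log2, where higher values mean more stayed soluble.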

Sequence	soluble fraction (log2)
HMDLDSGVAVLRTLMSQHNLQTDDFQNEIGGKSMVSMILNGTRKLSKNHIQALSGRFNLSPALFF	-0.494
HMEPTLVVARDKDAKSPLVAKLMKELGVDAAPRVIVDDSVIGGAKLSHNHTEIDATYKTALINLYQAIT	-0.0179
HMETYSGVERAAILVMYLERTLAKALLDHMNDEEVRRVGMAMASIDRVEGPDIERIVGDFVRELYEVS	-0.857
HMFYWTDLIGLDVINTADERLGKVVGLIETGANAVLRVMGDDQVERLLPFGSAVVLTVEKEAGQIRVEW	-2.05
HMPVNEEFKRLIDKIKYEFSINQAQISERLGVKSTYLSDMINGRVPYNESMQKKIHEVFHIG	0.114
HMSTGYEMVREVANQGSFSKAANSLGVSGPAVSKQVKSLEERLGLVLFHRTTRAVSLTQAGRQLVDVLN	-0.036
HMGRLEVDLVVPYDKYEAMNVIRAEGRILKEDHQGDGAHLKIQINETALWKLKRMLGEGYGQ	-0.255
HMNFTMERLYTKELTSEDIDEIKKELNSMGYTEGVEFNIIKGDKTSFIMAERQLKAKMLSHLSDLGLPRGA	0.0335
HMDAYDEVTTLSQMVASGKNTTVAHLKHLKEYHQTDYLRQAVEWLLSNRKNVSFSVDEVMQEVHN	-0.434
HMEDVTLSLVVGEDLDGERLDVFLTWKLDRTRSQVQALIRDGKVRLEQGQRARPSMVVRSGMGISVSLEPR	-1.11
HMTYNEYPEKEMQDLIDKSISQQEQAASQYGYSLGDYVTARYGFQSESDFREYVQGLAEDYMKEKI	-1.33
HMEEPEFEPYVVRLTAIALNVRTGPGTQYPVAMVIRGGGAFTIVAEENGFGLLKSGAGWIMLQHTERV	-0.427
HMKKERITWDERLERFAKYITENESLPYPSSKEHAWFEENKALYDAGELESVRAQSFSFLLKILRRMNLI	-0.449
HMIELEGVISSVLAGTMFKVKLRGNGHEVLAHISGKMRKKFIRLVIGDAVKIEMSPYDMDKARIVYRI	0.269
HMGYTLDVAHGVTEDMNFSEAFATAREEVGPGGIFYWHGKPYGTYYENEWNAMDEEDKAEYWDAVGRTTA	-0.508
HMDGMRASDMVRAALAGAGKTQKELAEHMGWTPQNLSGRLKNNSLTFDELSKALHFAGYEVSMSDANGAG	-0.115
HMVKNVVIPDVSNKAPVDASNQLTDLGFEVVTEYKYIASDTIEEGKVVKTSPEIGSKRKYGQKITLYISSG	0.205
HMDLKSLEFAIVENVQRHDLNPLEEAQGYKRLIDEFSYDQDKVSKFIGKSRSYITNSLRLLNLPLEVLEF	-0.541
HMQSLIVPVPKPEDDPVYKDGIKQDPVEVVSIWLGRDYLNMILNLKVSTGKGHTFGIVEDVS	-0.383
HMSGLLTTSKLAQKHKMKTEPMLEKLTAAGYLEWRDDKHSLTEQGKKAGGQFKTGRFGAYFLWPEDLV	0.116
HMGGLAHPASGEEMEHLFAHLEGELLKSGFLFPPDKAAGMMRNIRAMLTRADFTDQEVRTLRGMIVALSRG	-0.794
HMETMSGTVKWFNTQKGYGFITGDDGAEYFAHQTQIKMDGFRTLDAGDIVEFDVRSEEKGLAAVNIVP	-0.707
HMDKWFPVSSDHKVQVGDYLRTADGLVKVEATHNEYGTFYGKIITAIHDDVVKGETYEYRIDDVQVLA	-1.77
HMSSSMDAIAEIIRSIPRGDHLTAPEVYELAKQRGLKLSLSTVYRTLNKLKVVGDVITVSGDRGLRYESV	0.215
HMDVSASEVGLTGRQTDVLSLMVKGRSNRDIAELLGLSEGTVKIHITAIFKALGVASRTQALVAAARLGLK	-0.212

Sequence	soluble fraction (log2)
HMDMAYEVVKAFHDLQDYKDVKGGKVYHHYDVGDTYPRQGLDPAPDETRIEELLSSGNAQGVPLIAEV	-0.219
HMHQALLEQSAEHAQQVKAYELLLTAERALDEENTEAFLSAMKSLKPLAENLDAKGKALYQELLPFVTEA	-0.425
HMKESRFDYDAVLLYSDKDSITEVKDAVQHLTKEFGSVFTTKKIPEKATFGKLFRIEKGEVNIIEDN	-1.22
HMTLPGQDFIRASQLKELIAKYDKQYYEEGVSDISDAEYDRLYEEYLEFENKYPELKDMADAPTKRV	-0.661
HMPDLKIGKDHRLAEYIETKIAEDGYSPGAVLGEIKAKGLEFETEISKPTLYSYIDKGIFLTITNKELPV	0.0942
HMHQAADFAGFITFNKDGVEQFSFGKYKNQTVVSVLEKDPGYYSWIQNADFPLYTKKILTAIRLAM	-0.0054
HMPQFDRQAFGQRLRLLRDYREMTQQQVANFLNVDRSTYSYYENGKTEPSITVLMRMAELFSVTLDSLLNM	-1.05
HMPPELSDEVMEEAMSYLKNQYLNHGVKLEDYPALNKLFVDEAFRSEVIRKTQSNYKISYQSAMASLD	-0.928
HMEKIIFEISEEGKRLDLYIAERTELTRTRIQQLIKDGNINVNNKKSKPSYKVEKNDFIEMIIPDE	-0.49
HMTGMEKFLTIPSIRESTAAFEREYLIHYLDENAWQVSKTAAAIGIERTTLYKKMKQLGIVPIEE	-0.166
HMPVNGEFIERIKVMVLENKAKGKKERLTKTRMHQLLQEEGYKGSYSAFTHQVRIIEEELGVNQKEAH	0.235
HMGKEWPTPDNVEEWKKLVKKARLWPIQADQAQSEETRERNRKKWELFVAYAKRFGYRAGIGETGKPFVNN	0.164
HMKKTFSKSSVMEAIFRDIPNITIPNAHEVYTLIKNISVMNKRKSITSEDIEKAYDALGLTP	0.145
HMDQINNDLRKLIEFLPEDQKTVLKMRHFQEMSFKEIAKATGVSINTALGRMRYALINLRKLIEENEI	-0.903
HMINKIANLSAELRMEGLPVSIRSTQAAVKIYMDLGGDDRNLLKTALMSIYVKDRYDIPKFNKVFEKLFA	0.0706
HMSKETTYEVLSLKGDEWQTDTIYSDRDEAIEAARNLHGDPHIDGAKVISEVYDDKTGGSKETTIFNT	-0.21
HMAIHTSVTEHGEHDLTVRMEMEQVFAIEMAVVSHEQATMLERTFKANAEAIYQKLLGVMTQEYP	-0.841
HMQTAAANPSPESILQAREAAGLSQSEAGALIYSGLRSWQHWEWGTRRMHPGLFELFLKKTGQI	-1.02
HMPQKSDLTMEEYNKLGLAGGSGSRKLREQVGIRLSVGYGNSKQFYNRLHTFGISLDELKTAVEEVKNG	0.295
HMDDEAVQIMTLHISKGLEFDVVFALGLVSRTPESKEIEELEAEKQRQLYVAMTRAEKWLIVAA	0.22
HMQEAATSLNAKILAKLRENNGTLAVSDKSDPALISSLFGVSKGNFKKAIGALYKNGQIVIHADRIEL	0.00478
HMFIEHSKYKLSFKYNQLGKISNVINSNNGIIMDKHFDQNITLLAKLTENTFQEIIKHFPTIIIKRL	-0.539
HMDSDFIKIEVLFNERNRLDLKAMMEASGFTDRGQFLSIMADLTGDENWDRNLDRGDIFYLPRSFTI	-1.6
HMTAPQAQDYARVPDVLGLDMRESAQALRLDGFEMNAQGDGLAARQSPIGGSYAPEGTQVLVTFEM	-0.0592
HMNSNKFANAAAVAVAEKPADSYNPLFIYGPSGVGKTHLLYAIANEIHKHHPDYNIVYIKGDQFTNELIN	0.201

Sequence	soluble fraction (log2)
HMSFGESLKKLSIALNSIRKLATTDAGKKDPKVADLLGQIRDTFNSYRTHLRKNYPDLYSGIKNQL	-0.311
HMRKKTYEIITDDLRRMIEAGLIRPGEKLGAIDQLAAKYRVGRSTVREALSHLKALGLVESRQGGGTYVTK	0.109
HMGKMTSTLGVHIAAYRKEHGETVAQFASRSGVSVSSIRRIESGISDPSADLVWKISRHMGMTMDDLFKKM	-0.0972
HMRMTTEQLMSFLKQHFPQVADNFTVRISDEGRLSVEMPVNDKHLRPGGTVSGPSMFALADVAFYLAILQ	-0.349
HMRKTLASTAYDSIKAGIVSGEINNNLLLSENTLAKILNMSRTPIREAIKRLEAESYLKSVDGVGLIVQE	-0.314
HMKITININIETLSHHIKQSGVPLGRLQESVPDYNEIVTGNKSPTYQQLEKISKLIRVPLGLLVIESPL	-0.451
HMNVDSLVGSEARVTAEIDNRKETGTAMVNGQEWTARAESDEEIYPVGTIVEIRKIQGVKLIVSTH	0.18
HMIRMPNLIGLSVRSAEQQLVIAGLKKGIVHQVNDPRLKEVIDMQALGHKITAGSSIPKGTEVDLYIGNGT	0.282
HMDYIITHYPDNKRFETQVDGVVAFVQYRLSGDKLDIIHTIVPPAIGGRGIAAALVKYAYDYAIENGMK	-0.666
HMQSISLEEAKSAALDDAQLGIDEVEFLKTERNTDGDTSYYDIQFLVNGTIYKYQINTETGAILHVDYEA	-0.511
HMEGDKEIPNVIGKSINDAKKILEQAGLKLGEVKKVNDSSVAKNVVLSTNPNAGTKVSAGDAVSITVAEG	0.278
HMGTTAWISTKTANGSVNIRTGPGTGYGVIGWALNGDKLEVLSRGTSWHYVKLVKNGKIGYVSASYVSFTQ	-0.399
HMTNSAGIERFLASGAIDGVGPAMARRIVEHFGTEALRIIESVPHRLREISGIGPKTAEKIASSYMRQ	-0.618
HMTTIAQNISNYRTRANMTQQQVADKLSVSHHTVSKWELGINTPSVEDMQKLAQVFGVTITELVVD	-0.662
HMNMEPNWLKWAKQLAALAQNGLTYSDNPYEIERYEHIRRIAAEMMAEGFELDTKTILELFPREKG	-1.41
HMSKISKENEQQVIQIVQTLLLNVQDKSLITTQILNEKINLAVSLDTKYKENLDRDYIIEELIRRYSVW	-2.54
HMINNINKLPETQFIKLFANIFENSQFIAVALYKKKGDGFSDFKDLINKIMDIFENTTKEKKLKILNA	-0.173
HMIENITIELNKKALALDFELNKDLPEGVLETIPTLVSLMVRFDPLTVSYHFLRDYIDALLESNLNVDL	-0.56
HMKQDFVYNGFVEAKGDDLMVQINYKGETYYVTEGESFGGFTVKSANKDKVVLSGQGGAETVLEFR	-0.536
HMGVYDLIYLGYGINVEKEELVDQNISIIRRYANIFDPNGDIKGSTNPTYASNTAVLFNEAKFIIDGYD	-1.79
HMSLREKNKARTRTAILNAARDLAKQGQWDAITTRQIADAAGVSYQTLYNYYPSKASILVEMLL	-0.219
HMPSSQQVMRRLATVGPDKTLEELQRQHDAHLRKYGEFNDFRGERQQMRQEMERIKEAKQGTGPYAHLMG	-0.0742
HMTSSQLYLIEEDMEGERLDAFLAEVIADLSRTAIKDLISNGRVLVDGQARKPSYRVKEGEQVLIHVPEAR	-1.31
HMAPAGGITRQDLFAWGLMGGEGSREKRQQLKKSLGLPSHLGTSGFLDALNLIATRDQVEALLHK	≥ 0.43
HMFMSDDDIRILVKEWLQSQNRKSYQLAEEIGIRPQTFYAQMSVRKISANTKKALSRIIPGL	0.0503
